B1: Mothers against decapentaplegic homolog 4 (Homo sapiens), Q13485 (parent)
chain: MDNMSITNTPTSNDACLSIVHSLMCHRQGGESETFAKRAIESLVKKLKEKKDELDSLITAITTNGAHPSKCVTIQRTLDGRLQVAGRKGFPHVIYARLWRWPDLHKNELKHVKYCQYAFDLKCDSVCVNPYHYERVVSPGIDLSGLTLQSNAPSSMMVKDEYVHDFEGQPSLSTEGHSIQTIQHPPSNRASTETYSTPALLAPSESNATSTANFPNIPVASTSQPASILGGSHSEGLLQIASGPQPGQQQNGFTGQPATYHHNSTTTWTGSRTAPYTPNLPHHQNGHLQHHPPMPPHPGHYWPVHNELAFQPPISNHPAPEYWCSIAYFEMDVQVGETFKVPSSCPIVTVDGYVDPSGGDRFCLGQLSNVHRTEAIERARLHIGKGVQLECKGEGDVWVRCLSDHAVFVQSYYLDREAGRAPGDAVHKIYPSAYIKVFDLRQCHRQMQQQAATAQAAAAAQAAAVAGNIPGPGSVGGIAPAISLSAAAGIGVDDLRRLCILRMSFVKGWGPDYPRQSIKETPCWIEIHLHRALQLLDEVLHTMPIADPQPLD
partner: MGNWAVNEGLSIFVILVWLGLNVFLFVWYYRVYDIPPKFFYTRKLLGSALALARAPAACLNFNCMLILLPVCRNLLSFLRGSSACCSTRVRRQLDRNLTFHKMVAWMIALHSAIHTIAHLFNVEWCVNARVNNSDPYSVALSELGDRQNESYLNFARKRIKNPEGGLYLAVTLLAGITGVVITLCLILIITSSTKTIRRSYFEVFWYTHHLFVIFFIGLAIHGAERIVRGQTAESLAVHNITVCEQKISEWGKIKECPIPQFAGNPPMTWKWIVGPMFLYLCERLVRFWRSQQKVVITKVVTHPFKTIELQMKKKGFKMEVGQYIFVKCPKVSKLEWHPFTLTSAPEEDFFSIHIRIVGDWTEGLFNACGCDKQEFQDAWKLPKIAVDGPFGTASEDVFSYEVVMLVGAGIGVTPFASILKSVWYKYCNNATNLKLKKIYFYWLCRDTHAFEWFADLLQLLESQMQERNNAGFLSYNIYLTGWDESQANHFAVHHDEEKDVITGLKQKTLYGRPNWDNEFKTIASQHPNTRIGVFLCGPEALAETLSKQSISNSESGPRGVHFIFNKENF
B2: Mothers against decapentaplegic homolog 4 (Homo sapiens), Q13485 (parent)
chain: B1 chain
partner: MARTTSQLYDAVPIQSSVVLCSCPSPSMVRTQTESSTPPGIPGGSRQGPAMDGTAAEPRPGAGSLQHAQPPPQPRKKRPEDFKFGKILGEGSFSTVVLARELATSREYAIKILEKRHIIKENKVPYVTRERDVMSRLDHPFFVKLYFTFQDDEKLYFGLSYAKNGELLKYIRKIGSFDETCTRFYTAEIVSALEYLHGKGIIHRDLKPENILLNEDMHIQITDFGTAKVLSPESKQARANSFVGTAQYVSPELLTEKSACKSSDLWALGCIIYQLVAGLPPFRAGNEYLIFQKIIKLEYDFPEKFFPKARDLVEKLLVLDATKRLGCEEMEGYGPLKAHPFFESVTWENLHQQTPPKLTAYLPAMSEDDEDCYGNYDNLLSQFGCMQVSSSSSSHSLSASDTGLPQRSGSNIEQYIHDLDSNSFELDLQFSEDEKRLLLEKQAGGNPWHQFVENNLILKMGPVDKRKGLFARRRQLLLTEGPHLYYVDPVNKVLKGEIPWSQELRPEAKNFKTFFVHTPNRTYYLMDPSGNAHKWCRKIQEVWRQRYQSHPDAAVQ
B3: Mothers against decapentaplegic homolog 4 (Homo sapiens), Q13485 (parent)
chain: B1 chain
partner: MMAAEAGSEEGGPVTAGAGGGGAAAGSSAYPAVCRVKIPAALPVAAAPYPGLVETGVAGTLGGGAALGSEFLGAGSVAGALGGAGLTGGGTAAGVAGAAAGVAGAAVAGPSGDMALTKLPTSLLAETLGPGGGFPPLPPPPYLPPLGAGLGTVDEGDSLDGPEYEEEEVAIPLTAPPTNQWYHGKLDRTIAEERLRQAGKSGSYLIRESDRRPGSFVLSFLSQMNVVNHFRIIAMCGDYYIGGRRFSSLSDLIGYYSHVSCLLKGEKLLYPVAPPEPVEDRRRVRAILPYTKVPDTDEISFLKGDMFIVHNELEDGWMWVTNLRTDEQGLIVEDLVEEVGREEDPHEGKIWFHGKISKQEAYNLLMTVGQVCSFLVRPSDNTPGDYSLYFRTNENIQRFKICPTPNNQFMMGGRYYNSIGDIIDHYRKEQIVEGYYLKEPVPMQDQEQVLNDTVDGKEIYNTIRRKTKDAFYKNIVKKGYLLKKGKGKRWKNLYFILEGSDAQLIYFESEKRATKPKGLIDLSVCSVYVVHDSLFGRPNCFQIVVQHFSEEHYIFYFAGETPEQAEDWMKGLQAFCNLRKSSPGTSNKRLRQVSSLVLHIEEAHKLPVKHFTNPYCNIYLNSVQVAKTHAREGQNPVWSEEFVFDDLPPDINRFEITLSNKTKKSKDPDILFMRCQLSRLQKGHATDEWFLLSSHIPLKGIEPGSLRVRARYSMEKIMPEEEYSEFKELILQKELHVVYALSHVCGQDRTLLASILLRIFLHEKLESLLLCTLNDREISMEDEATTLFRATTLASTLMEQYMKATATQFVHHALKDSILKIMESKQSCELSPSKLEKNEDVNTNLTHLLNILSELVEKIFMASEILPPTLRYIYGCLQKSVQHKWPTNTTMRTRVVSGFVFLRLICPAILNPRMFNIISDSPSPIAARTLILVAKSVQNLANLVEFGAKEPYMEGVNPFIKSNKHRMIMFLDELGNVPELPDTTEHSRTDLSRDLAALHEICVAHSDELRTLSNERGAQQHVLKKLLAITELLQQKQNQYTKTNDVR
B4: Mothers against decapentaplegic homolog 4 (Homo sapiens), Q13485 (parent)
chain: B1 chain
partner: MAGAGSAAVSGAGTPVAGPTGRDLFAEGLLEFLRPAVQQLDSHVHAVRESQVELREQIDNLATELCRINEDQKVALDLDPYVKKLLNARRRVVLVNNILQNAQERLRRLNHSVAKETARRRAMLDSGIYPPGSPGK
B5: Mothers against decapentaplegic homolog 4 (Homo sapiens), Q13485 (parent)
chain: B1 chain
partner: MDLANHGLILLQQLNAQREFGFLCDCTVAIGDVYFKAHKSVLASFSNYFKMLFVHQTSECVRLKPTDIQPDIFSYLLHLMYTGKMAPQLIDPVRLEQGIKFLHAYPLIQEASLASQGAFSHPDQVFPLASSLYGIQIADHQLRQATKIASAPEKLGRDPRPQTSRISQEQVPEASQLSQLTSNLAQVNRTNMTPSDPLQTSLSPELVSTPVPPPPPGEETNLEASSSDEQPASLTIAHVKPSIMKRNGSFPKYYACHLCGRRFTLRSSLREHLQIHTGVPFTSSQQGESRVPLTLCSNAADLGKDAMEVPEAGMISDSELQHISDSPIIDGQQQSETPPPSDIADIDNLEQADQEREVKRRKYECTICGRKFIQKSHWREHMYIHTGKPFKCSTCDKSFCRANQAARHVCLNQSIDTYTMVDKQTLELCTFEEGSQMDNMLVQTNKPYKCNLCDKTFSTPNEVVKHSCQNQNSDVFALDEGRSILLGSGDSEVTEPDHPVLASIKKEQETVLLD
B6: Speckle-type POZ protein (Homo sapiens), O43791 (parent)
chain: MSRVPSPPPPAEMSSGPVAESWCYTQIKVVKFSYMWTINNFSFCREEMGEVIKSSTFSSGANDKLKWCLRVNPKGLDEESKDYLSLYLLLVSCPKSEVRAKFKFSILNAKGEETKAMESQRAYRFVQGKDWGFKKFIRRDFLLDEANGLLPDDKLTLFCEVSVVQDSVNISGQNTMNMVKVPECRLADELGGLWENSRFTDCCLCVAGQEFQAHKAILAARSPVFSAMFEHEMEESKKNRVEINDVEPEVFKEMMCFIYTGKAPNLDKMADDLLAAADKYALERLKVMCEDALCSNLSVENAAEILILADLHSADQLKTQAVDFINYHASDVLETSGWKSMVVSHPHLVAEAYRSLASAQCPFLGPPRKRLKQS
partner: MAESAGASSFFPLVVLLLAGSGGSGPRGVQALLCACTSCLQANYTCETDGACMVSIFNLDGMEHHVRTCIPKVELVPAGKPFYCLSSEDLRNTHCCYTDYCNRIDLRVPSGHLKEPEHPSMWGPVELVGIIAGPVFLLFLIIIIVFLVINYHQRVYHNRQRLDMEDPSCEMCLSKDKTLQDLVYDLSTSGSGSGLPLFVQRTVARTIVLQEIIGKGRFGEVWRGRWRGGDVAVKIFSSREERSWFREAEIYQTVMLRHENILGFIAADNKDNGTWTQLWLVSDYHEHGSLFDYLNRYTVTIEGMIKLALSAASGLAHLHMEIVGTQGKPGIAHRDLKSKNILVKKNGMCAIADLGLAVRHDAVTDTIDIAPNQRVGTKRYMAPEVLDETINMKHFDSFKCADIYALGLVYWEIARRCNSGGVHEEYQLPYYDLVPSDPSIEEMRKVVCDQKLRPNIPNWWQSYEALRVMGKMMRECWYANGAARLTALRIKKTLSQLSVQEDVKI
B7: Speckle-type POZ protein (Homo sapiens), O43791 (parent)
chain: B6 chain
partner: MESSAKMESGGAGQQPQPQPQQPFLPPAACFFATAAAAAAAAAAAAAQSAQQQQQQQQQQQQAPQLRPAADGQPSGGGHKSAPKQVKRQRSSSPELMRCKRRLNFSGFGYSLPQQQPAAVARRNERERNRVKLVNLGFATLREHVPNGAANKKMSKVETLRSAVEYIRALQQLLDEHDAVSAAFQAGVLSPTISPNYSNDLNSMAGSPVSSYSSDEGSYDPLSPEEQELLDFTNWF

Variants of: B1
Settings: with cy24b_human CYBB

Variant	effect of a mutation on the interaction
R361H	with no effect

Variants of: B2
Settings: with pdpk1_human PDPK1, O15530

Variant	effect of a mutation on the interaction
R361H	with no effect

Variants of: B3
Settings: with rasa1_human RASA1, P20936

Variant	effect of a mutation on the interaction
R361H	with no effect

Variants of: B4
Settings: with snapn_human SNAPIN

Variant	effect of a mutation on the interaction
R361H	with no effect

Variants of: B5
Settings: with zbtb2_human ZBTB2, Q8N680

Variant	effect of a mutation on the interaction
R361H	with no effect

Variants of: B6
Settings: with acv1b_human ACVR1B

Variant	effect of a mutation on the interaction
MSRVPSPPPPAEMSSGPVAESWCYTQIKVVKFSYMWTINNFSFCREEMGEVIKSSTFSSGANDKLKWCLRVNPKGLDEESKDYLSLYLLLVSCPKSEVRAKCKFSILNAKGEETKAMESQRAYRFVQGKDWGFKKFIRRDFLLDEANGLLPDDKLTLFCEVSVVQDSVNISGQNTMNMVKVPECRLADELGGLWENSRFTDCCLCVAGQEFQAHKAILAARSPVFSAMFEHEMEESKKNRVEINDVEPEVFKEMMCFIYTGKAPNLDKMADDLLAAADKYALERLKVMCEDALCSNLSVENAAEILILADLHSADQLKTQAVDFINYHASDVLETSGWKSMVVSHPHLVAEAYRSLASAQCPFLGPPRKRLKQS [F102C]	with no effect

Variants of: B6
Settings: with acv1b_human ACVR1B
Remark: another data set of the same source

Variant	effect of a mutation on the interaction
MSRVPSPPPPAEMSSGPVAESWCYTQIKVVKFSYMWTINNFSFCREEMGEVIKSSTFSSGANDKLKWCLRVNPKGLDEESKDYLSLYLLLVSCPKSEVRAKFKFSILNAKGEETKAMESQRAYRFVQGKDWGLKKFIRRDFLLDEANGLLPDDKLTLFCEVSVVQDSVNISGQNTMNMVKVPECRLADELGGLWENSRFTDCCLCVAGQEFQAHKAILAARSPVFSAMFEHEMEESKKNRVEINDVEPEVFKEMMCFIYTGKAPNLDKMADDLLAAADKYALERLKVMCEDALCSNLSVENAAEILILADLHSADQLKTQAVDFINYHASDVLETSGWKSMVVSHPHLVAEAYRSLASAQCPFLGPPRKRLKQS [F133L]	with no effect

Variants of: B6
Settings: with acv1b_human ACVR1B
Remark: another data set of the same source

Variant	effect of a mutation on the interaction
MSRVPSPPPPAEMSSGPVAESWCYTQIKVVKFSYMWTINNFSFCREEMGEVIKSSTFSSGANDKLKWCLRVNPKGLDEESKDYLSLCLLLVSCPKSEVRAKFKFSILNAKGEETKAMESQRAYRFVQGKDWGFKKFIRRDFLLDEANGLLPDDKLTLFCEVSVVQDSVNISGQNTMNMVKVPECRLADELGGLWENSRFTDCCLCVAGQEFQAHKAILAARSPVFSAMFEHEMEESKKNRVEINDVEPEVFKEMMCFIYTGKAPNLDKMADDLLAAADKYALERLKVMCEDALCSNLSVENAAEILILADLHSADQLKTQAVDFINYHASDVLETSGWKSMVVSHPHLVAEAYRSLASAQCPFLGPPRKRLKQS [Y87C]	with no effect

Variants of: B6
Settings: with acv1b_human ACVR1B
Remark: another data set of the same source

Variant	effect of a mutation on the interaction
MSRVPSPPPPAEMSSGPVAESWCYTQIKVVKFSYMWTINNFSFCREEMGEVIKSSTFSSGANDKLKWCLRVNPKGLDEESKDYLSLYLLLVSCPKSEVRAKFKFSILNAKGEETKAMESQRAYRFVQGKDWGVKKFIRRDFLLDEANGLLPDDKLTLFCEVSVVQDSVNISGQNTMNMVKVPECRLADELGGLWENSRFTDCCLCVAGQEFQAHKAILAARSPVFSAMFEHEMEESKKNRVEINDVEPEVFKEMMCFIYTGKAPNLDKMADDLLAAADKYALERLKVMCEDALCSNLSVENAAEILILADLHSADQLKTQAVDFINYHASDVLETSGWKSMVVSHPHLVAEAYRSLASAQCPFLGPPRKRLKQS [F133V]	with no effect

Variants of: B7
Settings: with ascl1_human ASCL1, P50553

Variant	effect of a mutation on the interaction
MSRVPSPPPPAEMSSGPVAESWCYTQIKVVKFSYMWTINNFSFCREEMGEVIKSSTFSSGANDKLKWCLRVNPKGLDEESKDYLSLYLLLVSCPKSEVRAKCKFSILNAKGEETKAMESQRAYRFVQGKDWGFKKFIRRDFLLDEANGLLPDDKLTLFCEVSVVQDSVNISGQNTMNMVKVPECRLADELGGLWENSRFTDCCLCVAGQEFQAHKAILAARSPVFSAMFEHEMEESKKNRVEINDVEPEVFKEMMCFIYTGKAPNLDKMADDLLAAADKYALERLKVMCEDALCSNLSVENAAEILILADLHSADQLKTQAVDFINYHASDVLETSGWKSMVVSHPHLVAEAYRSLASAQCPFLGPPRKRLKQS [F102C]	with no effect

Reference: IntAct's records for PubMed 35512704
